Results as given in patent US20260242478A1 (published 2026).
Read-outs that look alike come from different tables or passages of the source. Where no end group is shown, it is not given here.

Key:
[1] = biological target: Anti-CD28 Fab (SEQ ID NOs: 696, 697); assay: phage ELISA; biotinylated anti-CD28 Fab on neutravidin plate, clonal phage supernatant, anti-M13 HRP detection;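 as to Anti-CD28 Fab signal (phage binding ELISA): crude supernatants of single phage clones picked after panning were screened for binding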
Target sequence in this assay (VH, as listed by the source, chain 1 of 2): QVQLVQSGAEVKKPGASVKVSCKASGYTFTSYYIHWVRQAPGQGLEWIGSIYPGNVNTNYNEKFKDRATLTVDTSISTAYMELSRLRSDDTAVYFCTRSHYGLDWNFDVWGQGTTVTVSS
Target sequence in this assay (VL, as listed by the source, chain 2 of 2): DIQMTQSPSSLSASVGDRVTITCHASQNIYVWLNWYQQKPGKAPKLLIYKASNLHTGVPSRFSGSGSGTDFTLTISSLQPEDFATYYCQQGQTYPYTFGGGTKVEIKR
Description: (§1) After panning, phage infected bacteria were plated out and colonies picked into 96 well blocks. Clonal phage was then amplified and separated from bacterial cells via centrifugation.
(§2) Clonal phage were harvested as crude supematants and screened via standard ELISAs. […] Prior to the addition of clonal phage, wells were incubated with blocking buffer and CD28 antigen or blocking buffer alone. Without washing or aspirating, clonal phage supematants were then added to the wells and incubated for a short time. Wells were then washed followed by detection of bound phage using a horse radish conjugated anti-M13 antibody. Clonal phage of interest were then sent for sequence analysis.

[2] = biological target: Anti-CD28 Fab (SEQ ID NOs: 696, 697); assay: phage ELISA as above; wells pre-incubated with CD28 antigen as competitor
Target sequence in this assay (VH, as listed by the source, chain 1 of 2): as the sequence (VH, as listed by the source, chain 1 of 2) above
Target sequence in this assay (VL, as listed by the source, chain 2 of 2): as the sequence (VL, as listed by the source, chain 2 of 2) above
Description: as §1, §2

[3] = biological target: Anti-CD28 Fab (SEQ ID NOs: 696, 697); assay: phage binding ELISA on captured anti-CD28 Fab, wells pre-incubated with CD28 antigen as competitor;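 also: crude clonal phage supernatants added to wells preloaded with CD28 antigen, bound phage read by HRP-conjugated anti-M13 antibody, control wells got blocking buffer alone without CD28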
Target sequence in this assay (VH, as listed by the source, chain 1 of 2): as the sequence (VH, as listed by the source, chain 1 of 2) above
Target sequence in this assay (VL, as listed by the source, chain 2 of 2): as the sequence (VL, as listed by the source, chain 2 of 2) above
Description: as §1, §2

[4] = biological target: Anti-CD28 Fab (SEQ ID NOs: 696, 697); assay: phage binding ELISA, clonal phage on biotinylated anti-CD28 Fab captured on neutravidin plates;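 also: crude clonal phage supernatants added to wells pretreated with CD28 antigen or blocking buffer only, bound phage detected by HRP-linked anti-M13 antibody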
Target sequence in this assay (VH, as listed by the source, chain 1 of 2): as the sequence (VH, as listed by the source, chain 1 of 2) above
Target sequence in this assay (VL, as listed by the source, chain 2 of 2): as the sequence (VL, as listed by the source, chain 2 of 2) above
Description: as §1, §2

[5] = biological target: T1, Anti-CD28 Fab (SEQ ID NOs: 696, 697); assay: phage ELISA; biotinylated anti-CD28 Fab on neutravidin plate, clonal phage supernatant, anti-M13 HRP detection;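 as to Anti-CD28 Fab signal (phage binding ELISA): crude supernatants of single phage clones picked after panning were screened for binding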
T1 construct: Biotinylated and captured on neutravidin coated plates in the phage ELISA
T1 sequence (VH, as listed by the source, chain 1 of 2): as the sequence (VH, as listed by the source, chain 1 of 2) above
T1 sequence (VL, as listed by the source, chain 2 of 2): as the sequence (VL, as listed by the source, chain 2 of 2) above
Description: (§3) Clonal phage were harvested as crude supematants and screened via standard ELISAs. […] Prior to the addition of clonal phage, wells were incubated with blocking buffer and CD28 antigen or blocking buffer alone. Without washing or aspirating, clonal phage supematants were then added to the wells and incubated for a short time. Wells were then washed followed by detection of bound phage using a horse radish conjugated anti-M13 antibody.

[6] = biological target: T1, Anti-CD28 Fab (SEQ ID NOs: 696, 697); assay: phage ELISA; biotinylated anti-CD28 Fab on neutravidin plate, wells pre-incubated with CD28 antigen as competitor, anti-M13 HRP detection
Description: as §3

[7] = biological target: T2, Anti-CD28 Fab (SEQ ID NOs: 696, 697); assay: phage ELISA; biotinylated anti-CD28 Fab on neutravidin plate, clonal phage supernatant, anti-M13 HRP detection;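 as to Anti-CD28 Fab signal (phage binding ELISA): crude supernatants of single phage clones picked after panning were screened for binding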
T2 construct: In the phage ELISA the Fab was biotinylated and captured on neutravidin coated plates
T2 sequence (VH, as listed by the source, chain 1 of 2): as the sequence (VH, as listed by the source, chain 1 of 2) above
T2 sequence (VL, as listed by the source, chain 2 of 2): as the sequence (VL, as listed by the source, chain 2 of 2) above
Description: as §1, §2

[8] = biological target: T2, Anti-CD28 Fab (SEQ ID NOs: 696, 697); assay: phage ELISA; Fab-coated wells pre-incubated with CD28 antigen as competitor, clonal phage supernatant, anti-M13 HRP detection
Description: as §1, §2

B1: Phage-1307 (peptide, not shown: large carriers)
peptide: YCEGHLQEYMGKCL
modifications: cysteine pairing not given here; also: fused to phage pIII protein, pIII and linker sequence not given here
notes: Tested as clonal phage supernatant
[1]
  Anti-CD28 Fab signal (phage binding ELISA): 0.58
[2]
  Anti-CD28 Fab signal in the presence of CD28 (phage binding ELISA): 0.25

B2: Phage-1309 (peptide, not shown: large carriers)
peptide: YCDGHIMPYLDKCL
modifications: cysteine pairing not given here; also: fused to phage pIII protein, pIII and linker sequence not given here
notes: as for B1
[1]
  Anti-CD28 Fab signal (phage binding ELISA): 0.57
[2]
  Anti-CD28 Fab signal in the presence of CD28 (phage binding ELISA): 0.05

B3: Phage-1312 (peptide, not shown: large carriers)
peptide: YCDGHLETYMQKCL
modifications: cysteine pairing not given here; also: fused to phage pIII protein, pIII and linker sequence not given here
notes: as for B1
[1]
  Anti-CD28 Fab signal (phage binding ELISA): 0.53
[2]
  Anti-CD28 Fab signal in the presence of CD28 (phage binding ELISA): 0.08

B4: Phage-1322 (peptide)
peptide: YCEGHIKDYMTKCL
notes: Peptide-87 library clone, tested as clonal phage (peptide fused to pIII of the bacteriophage)
[3]
  Anti-CD28 Fab signal in the presence of CD28 (phage binding ELISA): 0.08
[4]
  Anti-CD28 Fab signal (phage binding ELISA): 0.47

B5: Phage-1302 (peptide, not shown: large carriers)
peptide: YCDGHIEMYMSKCM
modifications: cysteine pairing not given here; also: fused to phage pIII protein, pIII and linker sequence not given here
notes: as for B1
[1]
  Anti-CD28 Fab signal (phage binding ELISA): 0.61
[2]
  Anti-CD28 Fab signal in the presence of CD28 (phage binding ELISA): 0.06

B6: Phage-1561 (peptide)
peptide: TCAAGANWHWPWCF
[5]
  Phage binding ELISA, Anti-CD28 Fab signal: 1.46
[6]
  Phage binding ELISA, Anti-CD28 Fab signal in the presence of CD28: 0.15

B7: Phage-1563 (peptide)
peptide: SCSAGALWKWPVCF
[5]
  Phage binding ELISA, Anti-CD28 Fab signal: 1.45
[6]
  Phage binding ELISA, Anti-CD28 Fab signal in the presence of CD28: 0.07

B8: Phage-1318 (peptide)
peptide: YCEGHLGLYMKKCL
notes: as for B4
[3]
  Anti-CD28 Fab signal in the presence of CD28 (phage binding ELISA): 0.06
[4]
  Anti-CD28 Fab signal (phage binding ELISA): 0.49

B9: Phage-1314 (peptide)
peptide: YCEGHLDEYLQKCM
notes: as for B4
[3]
  Anti-CD28 Fab signal in the presence of CD28 (phage binding ELISA): 0.08
[4]
  Anti-CD28 Fab signal (phage binding ELISA): 0.51

B10: Phage-1320 (peptide)
peptide: YCAGHIPQYLNKCL
notes: as for B4
[3]
  Anti-CD28 Fab signal in the presence of CD28 (phage binding ELISA): 0.07
[4]
  Anti-CD28 Fab signal (phage binding ELISA): 0.49

B11: Phage-1323 (peptide)
peptide: YCAGHDAEYMQKCL
notes: as for B4
[3]
  Anti-CD28 Fab signal in the presence of CD28 (phage binding ELISA): 0.06
[4]
  Anti-CD28 Fab signal (phage binding ELISA): 0.46

B12: Phage-1324 (peptide)
peptide: YCEGHMQWYMAKCL
notes: as for B4
[3]
  Anti-CD28 Fab signal in the presence of CD28 (phage binding ELISA): 0.09
[4]
  Anti-CD28 Fab signal (phage binding ELISA): 0.45

B13: Phage-1299 (peptide)
peptide: YCEGHSRQYMEKCM
[7]
  Phage binding ELISA, Anti-CD28 Fab signal: 0.63
[8]
  Phage binding ELISA, Anti-CD28 Fab signal in the presence of CD28: 0.33

B14: Phage-1306 (peptide, not shown: large carriers)
peptide: YCDGHTPQFRAKCL
modifications: cysteine pairing not given here; also: fused to phage pIII protein, pIII and linker sequence not given here
notes: as for B1
[1]
  Anti-CD28 Fab signal (phage binding ELISA): 0.59
[2]
  Anti-CD28 Fab signal in the presence of CD28 (phage binding ELISA): 0.07

B15: Phage-1317 (peptide)
peptide: YCDGHAAMYMSKCL
notes: as for B4
[3]
  Anti-CD28 Fab signal in the presence of CD28 (phage binding ELISA): 0.07
[4]
  Anti-CD28 Fab signal (phage binding ELISA): 0.5

B16: Phage-1310 (peptide, not shown: large carriers)
peptide: YCEGHKKEYMLKCL
modifications: cysteine pairing not given here; also: fused to phage pIII protein, pIII and linker sequence not given here
notes: as for B1
[1]
  Anti-CD28 Fab signal (phage binding ELISA): 0.56
[2]
  Anti-CD28 Fab signal in the presence of CD28 (phage binding ELISA): 0.08

B17: Phage-1319 (peptide)
peptide: YCAGHAQEYMRKCL
notes: as for B4
[3]
  Anti-CD28 Fab signal in the presence of CD28 (phage binding ELISA): 0.07
[4]
  Anti-CD28 Fab signal (phage binding ELISA): 0.49

B18: Phage-1326 (peptide)
peptide: YCDGHDEQYLMKCL
notes: as for B4
[3]
  Anti-CD28 Fab signal in the presence of CD28 (phage binding ELISA): 0.07
[4]
  Anti-CD28 Fab signal (phage binding ELISA): 0.44

B19: Phage-1325 (peptide)
peptide: YCEGHAPVYMQKCL
notes: as for B4
[3]
  Anti-CD28 Fab signal in the presence of CD28 (phage binding ELISA): 0.08
[4]
  Anti-CD28 Fab signal (phage binding ELISA): 0.44

B20: Phage-1300 (peptide, not shown: large carriers)
peptide: YCSGHLPMYMAKCL
modifications: cysteine pairing not given here; also: fused to phage pIII protein, pIII and linker sequence not given here
notes: as for B1
[1]
  Anti-CD28 Fab signal (phage binding ELISA): 0.62
[2]
  Anti-CD28 Fab signal in the presence of CD28 (phage binding ELISA): 0.13

B21: Phage-1297 (peptide)
peptide: YCDGHAAWYLQKCL
[7]
  Phage binding ELISA, Anti-CD28 Fab signal: 0.64
[8]
  Phage binding ELISA, Anti-CD28 Fab signal in the presence of CD28: 0.07

B22: Phage-1298 (peptide)
peptide: YCEGHAQMYMLKCL
[7]
  Phage binding ELISA, Anti-CD28 Fab signal: 0.64
[8]
  Phage binding ELISA, Anti-CD28 Fab signal in the presence of CD28: 0.06

B23: Phage-1315 (peptide)
peptide: YCAGHTTEYIVKCL
notes: as for B4
[3]
  Anti-CD28 Fab signal in the presence of CD28 (phage binding ELISA): 0.05
[4]
  Anti-CD28 Fab signal (phage binding ELISA): 0.5

B24: Phage-1303 (peptide, not shown: large carriers)
peptide: YCAGHALEYMQKCM
modifications: cysteine pairing not given here; also: fused to phage pIII protein, pIII and linker sequence not given here
notes: as for B1
[1]
  Anti-CD28 Fab signal (phage binding ELISA): 0.61
[2]
  Anti-CD28 Fab signal in the presence of CD28 (phage binding ELISA): 0.08

B25: Phage-1564 (peptide)
peptide: TCSAGFSYKWPWCW
[5]
  Phage binding ELISA, Anti-CD28 Fab signal: 1.45
[6]
  Phage binding ELISA, Anti-CD28 Fab signal in the presence of CD28: 0.06

B26: Phage-1301 (peptide, not shown: large carriers)
peptide: YCEGHLAVHMSKCL
modifications: cysteine pairing not given here; also: fused to phage pIII protein, pIII and linker sequence not given here
notes: as for B1
[1]
  Anti-CD28 Fab signal (phage binding ELISA): 0.62
[2]
  Anti-CD28 Fab signal in the presence of CD28 (phage binding ELISA): 0.06

B27: Phage-1308 (peptide, not shown: large carriers)
peptide: YCDGHVTEYMAKCL
modifications: cysteine pairing not given here; also: fused to phage pIII protein, pIII and linker sequence not given here
notes: as for B1
[1]
  Anti-CD28 Fab signal (phage binding ELISA): 0.58
[2]
  Anti-CD28 Fab signal in the presence of CD28 (phage binding ELISA): 0.07

B28: Phage-1321 (peptide)
peptide: YCDGHSTEYMWKCL
notes: as for B4
[3]
  Anti-CD28 Fab signal in the presence of CD28 (phage binding ELISA): 0.06
[4]
  Anti-CD28 Fab signal (phage binding ELISA): 0.49

B29: Phage-1316 (peptide)
peptide: YCEGHVPQYMGKCL
notes: as for B4
[3]
  Anti-CD28 Fab signal in the presence of CD28 (phage binding ELISA): 0.08
[4]
  Anti-CD28 Fab signal (phage binding ELISA): 0.5

B30: Phage-1304 (peptide, not shown: large carriers)
peptide: YCEGHIGDYIAKCL
modifications: cysteine pairing not given here; also: fused to phage pIII protein, pIII and linker sequence not given here
notes: as for B1
[1]
  Anti-CD28 Fab signal (phage binding ELISA): 0.61
[2]
  Anti-CD28 Fab signal in the presence of CD28 (phage binding ELISA): 0.36

B31: Phage-1311 (peptide, not shown: large carriers)
peptide: YCEGHVELYRQKCL
modifications: cysteine pairing not given here; also: fused to phage pIII protein, pIII and linker sequence not given here
notes: as for B1
[1]
  Anti-CD28 Fab signal (phage binding ELISA): 0.56
[2]
  Anti-CD28 Fab signal in the presence of CD28 (phage binding ELISA): 0.06

B32: Phage-1305 (peptide, not shown: large carriers)
peptide: YCQGHSELYMSKCL
modifications: cysteine pairing not given here; also: fused to phage pIII protein, pIII and linker sequence not given here
notes: as for B1
[1]
  Anti-CD28 Fab signal (phage binding ELISA): 0.6
[2]
  Anti-CD28 Fab signal in the presence of CD28 (phage binding ELISA): 0.08

B33: Phage-1562 (peptide)
peptide: LCAAGATYPWPICL
[5]
  Phage binding ELISA, Anti-CD28 Fab signal: 1.46
[6]
  Phage binding ELISA, Anti-CD28 Fab signal in the presence of CD28: 0.08

B34: Phage-1295 (peptide)
peptide: YCMGHSAEYMGKCL
[7]
  Phage binding ELISA, Anti-CD28 Fab signal: 0.64
[8]
  Phage binding ELISA, Anti-CD28 Fab signal in the presence of CD28: 0.06

B35: Phage-1296 (peptide)
peptide: YCDGHAWWYMEKCL
[7]
  Phage binding ELISA, Anti-CD28 Fab signal: 0.64
[8]
  Phage binding ELISA, Anti-CD28 Fab signal in the presence of CD28: 0.06
